Measured values published in article PMC4212957, “The serodominant secreted effector protein of Salmonella, SseB, is a strong CD4 antigen containing an immunodominant epitope presented by diverse HLA class II alleles” (Immunology, 2014).

How the values were obtained:
HLA-DRB1*03:01 = target: T1, HLA-DRB1*03:01 (Homo sapiens, UniProt P01903+P01911, A100K/A102G/A103R/A169T/F55Y/I96L/K41T/L162R/M171V/P40S/Q125H/Q178H/Q39Y/R42S/S66N/T106N/T262R/W38E/Y61H); test: Peptide/HLA-DR binding, competitive ELISA; conditions: ratio IC50 of peptide / IC50 of reference peptide MT2-16, lower = higher affinity, ratio 20 or less high, 20–100 moderate, three independent experiments
T1 construct: HLA-DR heterodimers were purified from homozygous Epstein–Barr virus B-lymphoblastoid cell lines; host or cells: homozygous EBV B-lymphoblastoid cell line
Experimental: (§1) HLA-DR heterodimers were purified from homozygous Epstein–Barr virus B-lymphoblastoid cell lines (HPA Culture Collections, Salisbury, UK) by affinity chromatography with the monomorphic HLA-DRα monoclonal antibody, L243.[29],[30] Binding of the SseB peptide panel to the HLA-DR molecules HLA-DRB1*01:01, 03:01, 04:01, 07:01, 09:01, 11:01, 12:02, 15:01, 15:02 was assessed by competitive ELISA, as previously described, using an automated workstation.[29],[30] We evaluated the peptide concentration able to prevent binding of 50% of the labelled peptide (IC50). Data were expressed as relative affinity: ratio of the IC50 of the peptide to the IC50 of the reference peptide, which is a high binder to the HLA class II molecule. Unlabelled forms of the biotinylated peptides were used as reference peptides.

HLA-DRB1*09:01 = target: T2, HLA-DRB1*09:01 (Homo sapiens, UniProt P01903+P01911, A100R/A103E/D57H/D86V/F55Y/F60I/F76Y/I96F/K127E/L162R/M171V/P40D/Q125H/Q99R/R33Q/R42F/S133A/S66N/T210M/V115G/W38K/Y107V/Y59G/Y89S); test: Peptide/HLA-DR binding, competitive ELISA; conditions: ratio IC50 of peptide / IC50 of reference peptide CTP 427–441, lower = higher affinity, ratio 20 or less high, 20–100 moderate, three independent experiments
T2 construct: HLA-DR heterodimers were purified from homozygous Epstein–Barr virus B-lymphoblastoid cell lines; host or cells: homozygous EBV B-lymphoblastoid cell line
Experimental: as §1

HLA-DRB1*12:02 = HLA-DRB1*12:02 (Homo sapiens, UniProt P01903+P01911, A100R/A169T/D57E/D86V/F55L/H45Y/I96F/K41T/L162R/M171V/P40S/Q125H/Q178H/Q39Y/Q99D/R42G/S66L/T262R/V114A/V67L/W38E/Y59H/Y61H/Y89S); test: Peptide/HLA-DR binding, competitive ELISA; conditions: ratio IC50 of peptide / IC50 of reference peptide TFR 141–155, lower = higher affinity, ratio 20 or less high, 20–100 moderate, three independent experiments
Experimental: as §1

HLA-DRB1*15:01 = target: T3, HLA-DRB1*15:01 (Homo sapiens, UniProt P01903+P01911); test: Peptide/HLA-DR binding, competitive ELISA; conditions: ratio IC50 of peptide / IC50 of reference peptide A3 152–166, lower = higher affinity, ratio 20 or less high, 20–100 moderate, three independent experiments
T3 construct: HLA-DR heterodimers were purified from homozygous Epstein–Barr virus B-lymphoblastoid cell lines; host or cells: homozygous EBV B-lymphoblastoid cell line
Experimental: as §1

HLA-DRB1*15:02 = target: T4, HLA-DRB1*15:02 (Homo sapiens, UniProt P01903+P01911, V115G); test: Peptide/HLA-DR binding, competitive ELISA; conditions: ratio IC50 of peptide / IC50 of reference peptide TFR 607–620, lower = higher affinity, ratio 20 or less high, 20–100 moderate, three independent experiments
T4 construct: HLA-DR heterodimers were purified from homozygous Epstein–Barr virus B-lymphoblastoid cell lines; host or cells: homozygous EBV B-lymphoblastoid cell line
Experimental: as §1

HLA-DRB1*01:01 = HLA-DRB1*01:01 (Homo sapiens, UniProt P01903+P01911, A100R/D57E/F55L/F60I/F76Y/I96L/L162R/M171V/P40L/Q125E/R42F/V115G/Y59C); conditions: competitive ELISA; ratio IC50 of peptide / IC50 of reference peptide HA 306–318; lower = higher affinity; ratio 20 or less high, 20–100 moderate; three independent experiments
HLA-DRB1*04:01 = HLA-DRB1*04:01 (Homo sapiens, UniProt P01903+P01911, A100K/A169T/F76Y/I96L/K127E/L162R/M171V/N62H/P40V/Q125Y/R42H/S133A/S149N/S66Y/V115G/V209L/W38E); conditions: competitive ELISA; ratio IC50 of peptide / IC50 of reference peptide HA 306–318; lower = higher affinity; ratio 20 or less high, 20–100 moderate; three independent experiments
HLA-DRB1*07:01 = HLA-DRB1*07:01 (Homo sapiens, UniProt P01903+P01911, A100R/A102G/A103Q/D57E/D86V/E43K/F76Y/K127E/L162R/M171V/P40G/Q125H/Q99D/R33Q/R42Y/R54Q/S133A/S66F/T210M/V115G/Y107V/Y59L/Y89S); conditions: competitive ELISA; ratio IC50 of peptide / IC50 of reference peptide HA 306–318; lower = higher affinity; ratio 20 or less high, 20–100 moderate; three independent experiments
HLA-DRB1*11:01 = HLA-DRB1*11:01 (Homo sapiens, UniProt P01903+P01911, A100R/A169T/A87E/I96F/K41T/L162R/M171V/P40S/Q125H/Q178H/Q39Y/Q99D/R42S/S66Y/T262R/V115G/W38E); conditions: competitive ELISA; ratio IC50 of peptide / IC50 of reference peptide HA 306–318; lower = higher affinity; ratio 20 or less high, 20–100 moderate; three independent experiments

Row | Substance | Relative binding affinity of peptide to HLA-DR molecules DRB1*0301 (HLA-DRB1*03:01) | Relative binding affinity of peptide to HLA-DR molecules DRB1*0901 (HLA-DRB1*09:01) | Relative binding affinity of peptide to HLA-DR molecules DRB1*1202 (HLA-DRB1*12:02) | Relative binding affinity of peptide to HLA-DR molecules DRB1*1501 (HLA-DRB1*15:01) | Relative binding affinity of peptide to HLA-DR molecules DRB1*1502 (HLA-DRB1*15:02) | Relative binding affinity of peptide to HLA-DR molecules DRB1*0101 (HLA-DRB1*01:01) | Relative binding affinity of peptide to HLA-DR molecules DRB1*0401 (HLA-DRB1*04:01) | Relative binding affinity of peptide to HLA-DR molecules DRB1*0701 (HLA-DRB1*07:01) | Relative binding affinity of peptide to HLA-DR molecules DRB1*1101 (HLA-DRB1*11:01)
1 | 9: SseB overlapping library peptide, residues 81–100 (MDEVIAKAAKGDAKTKEEVP) [Peptide 9] | 41 | 626 | > 136 | 200 | > 3 333 | 1508 | > 145 | > 336 | 8
2 | 10: SseB overlapping library peptide, residues 91–110 (GDAKTKEEVPEDVIKYMRDN) [Peptide 10] | > 119 | > 689 | > 136 | 58 | > 3 333 | > 4149 | > 145 | 87 | > 278
3 | 12: SseB overlapping library peptide, residues 111–130 (GILIDGMTIDDYMAKYGDHG) [Peptide 12] | 18 | > 689 | 105 | 12 | 1 826 | > 4149 | > 145 | 167 | > 278
4 | 13: SseB overlapping library peptide, residues 121–140 (DYMAKYGDHGKLDKGGLQAI) [Peptide 13] | > 119 | > 689 | > 136 | 12 | 2 000 | 2958 | > 145 | > 336 | > 278
5 | 15: SseB overlapping library peptide, residues 141–160 (KAALDNDANRNTDLMSQGQI) [Peptide 15] | 57 | > 689 | > 136 | > 270 | > 3 333 | > 4149 | > 145 | > 336 | > 278
6 | 16: SseB overlapping library peptide, residues 151–170 (NTDLMSQGQITIQKMSQELN) [Peptide 16] | > 119 | > 689 | 52 | > 270 | > 3 333 | 964 | > 145 | > 336 | > 278
7 | 17: SseB overlapping library peptide, residues 161–180 (TIQKMSQELNAVLTQLTGLI) [Peptide 17] | > 119 | > 689 | > 136 | > 270 | > 3 333 | 18 | > 145 | 8 | > 278
8 | MSSGNILWGSQNPIVFKNSF [Peptide 1] | > 119 | > 689 | 3 | 7 | > 3 333 | 447 | 12 | 6 | > 278
